Kd data for one sequence are collected here from US20030049644.

The data set addresses Hepatocyte growth factor/scatter factor (HGF) (UniProt P14210+P14210). Briefly: FP. The note with it: 2'-F pyrimidines.

Hepatocyte growth factor/scatter factor (HGF), sequence (P14210 32-494, chain 1 of 2): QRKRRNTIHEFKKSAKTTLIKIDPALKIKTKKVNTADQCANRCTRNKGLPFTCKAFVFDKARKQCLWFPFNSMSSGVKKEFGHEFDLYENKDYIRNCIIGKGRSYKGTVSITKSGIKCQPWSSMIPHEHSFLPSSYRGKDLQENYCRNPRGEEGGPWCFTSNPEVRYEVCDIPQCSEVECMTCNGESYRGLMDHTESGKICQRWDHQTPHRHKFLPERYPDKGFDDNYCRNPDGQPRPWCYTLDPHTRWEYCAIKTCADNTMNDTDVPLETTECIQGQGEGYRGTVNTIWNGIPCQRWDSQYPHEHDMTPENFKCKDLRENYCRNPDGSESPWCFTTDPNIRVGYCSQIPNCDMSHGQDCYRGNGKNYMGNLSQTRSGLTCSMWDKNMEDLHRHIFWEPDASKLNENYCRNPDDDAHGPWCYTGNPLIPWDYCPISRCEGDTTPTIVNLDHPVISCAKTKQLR
Hepatocyte growth factor/scatter factor (HGF), sequence (P14210 495-728, chain 2 of 2): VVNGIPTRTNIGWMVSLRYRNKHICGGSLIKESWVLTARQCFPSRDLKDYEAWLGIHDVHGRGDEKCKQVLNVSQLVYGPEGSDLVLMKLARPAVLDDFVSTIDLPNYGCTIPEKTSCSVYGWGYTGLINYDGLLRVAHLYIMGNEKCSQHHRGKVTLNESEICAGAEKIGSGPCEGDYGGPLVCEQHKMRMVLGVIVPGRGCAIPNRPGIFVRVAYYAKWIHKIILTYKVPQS

For orientation: Kd means a measure of binding affinity in units of concentration. High values mean lower affinity, low ones higher affinity. “GAGAGNUCCUAUUUAUGACAUCCCAUGCCCCCA [Tr65]” registered a Kd of 1.4 nM.
